Results as given in US20220332804A1 (CSL INNOVATION, published 2022).
Numbering of substitutions follows the chain as printed.

B1: RF16-226 YEY (antibody, human IgG4 S228P, lambda)
heavy: EVQLVQSGAEVKKPGESLKISCKGSGYSFTSYWIGWVRQMPGKGLEWMGIIYPGDSDTRYSPSFQGQVTISADKSISTAYLQWSSLKASDTAMYYCARRFSYSSGWDMWGQGTLVTVSSASTKGPSVFPLAPCSRSTSESTAALGCLVKDYFPEPVTVSWNSGALTSGVHTFPAVLQSSGLYSLSSVVTVPSSSLGTKTYTCNVDHKPSNTKVDKRVESKYGPPCPPCPAPEFLGGPSVFLFPPKPKDTLYISRTPEVTCVVVDVSQEDPEVQFNWYVDGVEVHEAKTKPREEQFNSTYRVVSVLTVLHQDWLNGKEYKCKVSNKGLPSSIEKTISKAKGQPREPQVYTLPPSQEEMTKNQVSLTCLVKGFYPSDIAVEWESNGQPENNYKTTPPVLDSDGSFFLYSRLTVDKSRWQEGNVFSCSVMHEALHYHYTQKSLSLSLGK
light: SYELTQPPSVSVSPGQTARITCSGDALTSKYVAWYQQKSGLAPLLVIYEDTRRPSGIPAKFSGSSSGSVATLTISGAHGDDEADYYCYSTDASGHQRVFGGGTKLTVLSQPKAAPSVTLFPPSSEELQANKATLVCLISDFYPGAVTVAWKADGSPVKAGVETTKPSKQSNNKYAASSYLSLTPEQWKSHRSYSCQVTHEGSTVEKTVAPTECS
B2: RF16-226 YPY (antibody, human IgG4 S228P, lambda)
heavy: B1 heavy with E285N, V307P
light: B1 light
B3: RF16-226 YTE (antibody, human IgG4 S228P, lambda)
heavy: B1 heavy with S253T, T255E, E285N, Y433N
light: B1 light

What was measured:
[1] = biological target: T1, human complement C2 (human, UniProt P06681 21-752); experiment: SPR, mAb captured, huC2 analyte, pH 6
T1 construct: Recombinant full-length human C2 with C-terminal 8x His tag, purified from Expi293F supernatant; also called human C2; huC2
T1 sequence: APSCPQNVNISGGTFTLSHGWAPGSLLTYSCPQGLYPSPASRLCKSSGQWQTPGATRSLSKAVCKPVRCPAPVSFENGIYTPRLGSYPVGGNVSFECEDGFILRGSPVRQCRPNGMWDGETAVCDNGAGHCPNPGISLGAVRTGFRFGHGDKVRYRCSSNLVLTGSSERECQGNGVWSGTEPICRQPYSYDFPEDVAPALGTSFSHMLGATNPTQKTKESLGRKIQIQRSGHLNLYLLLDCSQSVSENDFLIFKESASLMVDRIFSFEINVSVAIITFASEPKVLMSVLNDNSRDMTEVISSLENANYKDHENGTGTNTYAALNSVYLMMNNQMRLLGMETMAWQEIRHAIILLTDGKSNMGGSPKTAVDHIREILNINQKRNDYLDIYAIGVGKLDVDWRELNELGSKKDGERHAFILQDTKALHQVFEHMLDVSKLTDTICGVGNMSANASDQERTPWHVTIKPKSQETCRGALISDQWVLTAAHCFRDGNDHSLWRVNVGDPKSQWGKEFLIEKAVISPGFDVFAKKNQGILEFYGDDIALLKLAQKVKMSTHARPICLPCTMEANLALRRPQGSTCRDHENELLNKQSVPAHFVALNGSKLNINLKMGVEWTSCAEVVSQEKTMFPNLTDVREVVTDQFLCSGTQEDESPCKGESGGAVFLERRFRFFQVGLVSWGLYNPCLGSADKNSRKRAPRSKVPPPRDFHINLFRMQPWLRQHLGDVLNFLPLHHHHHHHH

[2] = biological target: T1, human complement C2; experiment: SPR, mAb captured, huC2 analyte, neutral pH; pH 7

Binder | Kd [1] | Kd [2]
B1 | ~80 nM | ~9 nM
B2 | ~80 nM | ~9 nM
B3 | ~80 nM | ~9 nM
